This test addresses mononucleosomes reconstituted by salt dialysis with purified recombinant Drosophila core histones (Drosophila), P84051. Kind of test: native gel or EMSA; gel mobility shift; 147 bp X. borealis 5S rDNA mononucleosomes (60 nM) with indicated amounts of Dsup; HEG buffer (25 mM Hepes K+, pH 7.6, 0.1 mM EDTA, 10% glycerol), 100 mM KCl, BSA; 30°C 30 min; nondenaturing 4.5% polyacrylamide gel at 4°C, ethidium bromide. The following applies: remark: other sources report otherwise. For orientation: In EMSA bound probe runs differently from free probe, usually more slowly.

B1: Ramazzottius varieornatus damage suppressor protein (Rv Dsup), P0DOW4 1-445 (natural protein)
chain: MASTHQSSTEPSSTGKSEETKKDASQGSGQDSKNVTVTKGTGSSATSAAIVKTGGSQGKDSSTTAGSSSTQGQKFSTTPTDPKTFSSDQKEKSKSPAKEVPSGGDSKSQGDTKSQSDAKSSGQSQGQSKDSGKSSSDSSKSHSVIGAVKDVVAGAKDVAGKAVEDAPSIMHTAVDAVKNAATTVKDVASSAASTVAEKVVDAYHSVVGDKTDDKKEGEHSGDKKDDSKAGSGSGQGGDNKKSEGETSGQAESSSGNEGAAPAKGRGRGRPPAAAKGVAKGAAKGAAASKGAKSGAESSKGGEQSSGDIEMADASSKGGSDQRDSAATVGEGGASGSEGGAKKGRGRGAGKKADAGDTSAEPPRRSSRLTSSGTGAGSAPAAAKGGAKRAASSSSTPSNAKKQATGGAGKAAATKATAAKSAASKAPQNGAGAKKKGGKAGGRKRK
As to B1, the stoichiometry N (molecules of Rv Dsup per nucleosome) was determined as 2.
